Substitutions are numbered along the chain they refer to. Where no end group is shown, it is not given here.
Experiments:
G12V mutant KRAS = target: T1, G12V mutant KRAS (Homo sapiens, UniProt P01116, G12V); experiment: In vitro translation assay with streptavidin pull-down, KRAS G12V; format: binding; details: 10 μM biotinylated pept-in, Western blot
T1 construct: made in house; host or cells: cell-free: PURExpress In Vitro Protein Synthesis Kit (New England Biolabs)
Description: (§1) In vitro translation assays were performed using the PURExpress® In Vitro Protein Synthesis Kit (New England Biolabs) according to the manufacturer's instructions. Briefly, linear DNA fragments containing T7 promotor and terminator sequences flanking the KRAS coding sequence were generated using PCR and purified using the MinElute PCR Purification Kit (Qiagen). 250 ng of linear DNA was subsequently used for the in vitro translation reaction, which was performed for 2 hours at 37° C. with shaking (1000 rpm). Indicated biotinylated pept-ins were mixed in the translation reactions from a 5 mM stock solution in 6M Urea to a final concentration of 10 μM. Upon completion of the translation reaction, biotinylated pept-ins were captured from the reaction mix using Streptavidin coated beads (Pierce) during 90 min at room temperature. Beads were next washed with TBS containing 0.1% Tween 20 and bound proteins were finally boiled off in 1×SDS loading dye (Bio-Rad) in TBS buffer. Proteins were resolved using Any kD 15-well Mini-PROTEAN gels (Bio-Rad) during SDS-PAGE and probed for KRAS after Western blotting using a mouse monoclonal KRAS-specific antibody (SC-30, Santa Cruz Biotechnology), which was detected with an HRP-coupled anti-mouse secondary antibody using chemiluminescence on a Bio-Rad Chemidoc MP imaging instrument.
To mimic this in vitro, we devised an in vitro translation setup producing either wild-type or mutant KRAS (G12V, G12C, G12D or G13D) in the presence of biotinylated RAS-targeting pept-ins. This allowed us to perform a streptavidin pull-down to capture the biotinylated pept-ins from the translation reaction and perform SDS-PAGE and Western blotting to probe the pulled-down fraction for the presence of KRAS. The biotinylated version of pept-in 04-004-N001, i.e. 04-004-N011, which harbours an APR window sequence derived from a wild-type APR, is predicted to target all RAS proteins independently from their mutation status.

G12C mutant KRAS = target: T2, G12C mutant KRAS (Homo sapiens, UniProt P01116, G12C); experiment: In vitro translation assay with streptavidin pull-down, KRAS G12C; format: binding; details: 10 μM biotinylated pept-in, Western blot
T2 construct: made in house; host or cells: cell-free: PURExpress In Vitro Protein Synthesis Kit (New England Biolabs)
Description: as §1, with “instrument. […]” for “instrument.”

KRAS G12D mutant = target: T3, KRAS G12D mutant (Homo sapiens, UniProt P01116, G12D); experiment: In vitro translation assay with streptavidin pull-down, KRAS G12D; format: binding; details: 10 μM biotinylated pept-in, Western blot
T3 construct: made in house; host or cells: cell-free: PURExpress In Vitro Protein Synthesis Kit (New England Biolabs)
Description: as §1, with “instrument. […]” for “instrument.”

KRAS G13D mutant = target: T4, KRAS G13D mutant (Homo sapiens, UniProt P01116, G13D); experiment: In vitro translation assay with streptavidin pull-down, KRAS G13D; format: binding; details: 10 μM biotinylated pept-in, Western blot
T4 construct: made in house; host or cells: cell-free: PURExpress In Vitro Protein Synthesis Kit (New England Biolabs)
Description: as §1, with “instrument. […]” for “instrument.”

[1] = target: T5, mCherry-tagged KRAS G12V in HeLa cells (Homo sapiens, UniProt P01116, G12V); experiment: Cellular fluorescent imaging in HeLa cells overexpressing mCherry-tagged KRAS G12V; format: cell-based; details: 75 min after treatment
T5 construct: expressed in transfected cells; host or cells: HeLa cells transduced with lentiviral particles
Description: Fluorescent cellular imaging was performed using HeLa cells that were transduced with lentiviral particles carrying a construct expressing KRAS G12V labeled N-terminally with mCherry. Cells were seeded in a black Gclear® Cellstar® F-bottom 96-well plates (Greiner) in 100 μL full growth medium. […] Next, cells were fixed, washed and counterstained with the nuclear dye NucBlue™ (containing Hoechst 33342). Images were captured on a Leica confocal microscope.
To complement the co-immunoprecipitation approach, we also used a cellular imaging approach to show target engagement. To this end, we generated a HeLa cell line overexpressing mCherry-tagged KRAS G12V and FITC-labelled versions of the RAS-targeting pept-ins.

ITK R29C = target: T6, ITK R29C (Homo sapiens, UniProt Q08881, R29C); experiment: ITK in vitro translation assay with streptavidin pull-down, R29C; details: 10 μM biotinylated pept-in, fraction binding normalized over vehicle
T6 construct: made in house; host or cells: cell-free: PURExpress In Vitro Protein Synthesis Kit (New England Biolabs)
T6 sequence (Q08881 1-620 R29C): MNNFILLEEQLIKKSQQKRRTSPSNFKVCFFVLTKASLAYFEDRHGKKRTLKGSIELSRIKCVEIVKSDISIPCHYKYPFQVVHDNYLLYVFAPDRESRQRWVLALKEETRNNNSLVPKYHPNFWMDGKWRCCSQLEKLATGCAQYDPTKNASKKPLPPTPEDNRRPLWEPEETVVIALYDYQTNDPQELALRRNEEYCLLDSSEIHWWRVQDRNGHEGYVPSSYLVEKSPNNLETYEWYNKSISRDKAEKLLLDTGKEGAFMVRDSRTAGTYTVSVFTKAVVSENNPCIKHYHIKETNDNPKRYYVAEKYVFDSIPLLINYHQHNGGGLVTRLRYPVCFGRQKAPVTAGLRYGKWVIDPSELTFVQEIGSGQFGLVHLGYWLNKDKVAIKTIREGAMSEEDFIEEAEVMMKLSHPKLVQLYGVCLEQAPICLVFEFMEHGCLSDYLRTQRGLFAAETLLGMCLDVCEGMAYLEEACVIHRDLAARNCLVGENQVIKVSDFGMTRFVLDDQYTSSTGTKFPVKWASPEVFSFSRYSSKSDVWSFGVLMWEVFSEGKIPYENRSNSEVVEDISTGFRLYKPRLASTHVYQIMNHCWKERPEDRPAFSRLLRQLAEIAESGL
Description: (§2) An in vitro translation approach was used to assess ITK mutant selective binding over wild-type for the 22-006-N001 and 22-018-N001 pept-ins. In particular, in vitro translation assays were performed using the PURExpress® In Vitro Protein Synthesis Kit (New England Biolabs) according to the manufacturer's instructions. Briefly, linear DNA fragments containing T7 promotor and terminator sequences flanking the […] (SEQ ID NO: 68)-tagged ITK coding sequence were generated using PCR and purified using the MinElute PCR Purification Kit (Qiagen). 250 ng of linear DNA was subsequently used for the in vitro translation reaction, which was performed for 2 hrs at 37° C. with shaking (1000 rpm). Indicated biotinylated pept-ins were mixed in the translation reactions from a 5 mM stock solution in 6M Urea to a final concentration of 10 μM. Upon completion of the translation reaction, biotinylated pept-ins were captured from the reaction mix using Streptavidin coated beads (Pierce) during 90 min at room temperature. Beads were next washed with TBS containing 0.1% Tween 20 and bound proteins were finally boiled off in 1×SDS loading dye (Bio-Rad) in TBS buffer. Proteins were resolved using Any kD 15-well Mini-PROTEAN gels (Bio-Rad) during SDS-PAGE and probed for ITK using a rabbit anti-[…] (SEQ ID NO: 68) tag antibody (Cell Signaling 14793) after Western blotting.

ITK R29L = target: T7, ITK R29L (Homo sapiens, UniProt Q08881, R29L); experiment: ITK in vitro translation assay with streptavidin pull-down, R29L; details: 10 μM biotinylated pept-in, fraction binding normalized over vehicle
T7 construct: made in house; host or cells: cell-free: PURExpress In Vitro Protein Synthesis Kit (New England Biolabs)
T7 sequence (Q08881 1-620 R29L): T6 sequence (Q08881 1-620 R29C) with C29L
Description: as §2

[2] = test system: NCI-H441 spheroid cultures; experiment: Single-dose viability screen on NCI-H441 suspension spheroid cultures (3D, CellTiter Glo 3D); format: cell-based, human; details: NCI-H441 spheroids, single dose 25 μM, 5 days
Description: For the single-dose viability screen on spheroid cultures, 1000 cells were seeded per well in black Ultra-Low Attachment (ULA) round-bottom 96-well plates (Corning) in 75 μL full growth medium. The day after seeding, spheroids were treated by addition of 50 μl of full growth medium containing the indicated test compounds so that the final concentration after adding was 25 μM. Technical duplicates were included for all experimental pept-in conditions 5 days after treatment viability was assessed using the CellTiter Glo 3D reagent (Promega) according to the manufacturer's instructions, with the following adaptation: 80 μL of reagent was added per well. Readout was performed on a Clariostar plate reader (BMG). […]
As previous reports have shown that adherent growth of KRAS mutant cells lines might attenuate their sensitivity to KRAS inhibition or knockdown (Fujita-Sato et al. Cancer Res. 2015, vol. 75, 2851-62; Patricelli et al. Cancer Discov. 2016, vol. 6, 316-29; Vartanian et al. J Biol Chem. 2013, vol. 288, 2403-13), we complemented the screen on adherently growing NCI-H441 cells with a screen on suspension spheroid cultures of the same cell line. […] Viability of the spheroid cultures was determined after 5 days of exposure using the CellTiter Glo 3D reagent from Promega. […]

## 04-004-N011: biotinylated version of pept-in 04-004-N001 (KLSVFAIKGSKLSVFAIK; also: biotinylated version of 04-004-N001)
G12V mutant KRAS
  pull-down of KRAS G12V: efficient pull-down
G12C mutant KRAS
  pull-down of KRAS G12C: efficient pull-down
KRAS G12D mutant
  binding to KRAS G12D: less efficient
KRAS G13D mutant
  binding to KRAS G13D: less efficient

## 04-015-N032: RAS-targeting FITC-labelled version of pept-in 04-015-N001 (KVVVGAVGKGSKVVVGAVGK; also: FITC-labelled version of 04-015-N001)
[1]
  association with mCherry-labelled KRAS: associates with mCherry-labelled KRAS

## AKVCFFVKGSKVCFFVK (ITK pept-in) [22-006-N001]
ITK R29C
  binding to ITK R29C over wild-type: Selective binding to the mutant over wild-type

## AKVLFFVKGSKVLFFVK (ITK pept-in) [22-018-N001]
ITK R29L
  binding to ITK R29L over wild-type: Selective binding to the mutant over wild-type

## Ac-KLVVVGAVKGSKLVVVGAVK-NH2 [04-014-N001]
[2]
  activity in the spheroid setting: did not display activity
